Assay results from CN110028578A.

Assays:
[1] = biological target: A/Shanghai/2/2013 H7N9 HA extracellular domain 11-505 (H3 numbering) with C-terminal T4 trimerisatio (Influenza A virus A/Shanghai/2/2013 H7N9); assay: BLI, biotinylated HA on streptavidin probe, antibody in solution
[2] = biological target: A/Guangdong/17SF003/2016 H7N9 HA extracellular domain 11-505 (H3 numbering) with C-terminal T4 trime (Influenza A virus A/Guangdong/17SF003/2016 H7N9); assay: as above

B1: P52E03 IgG (antibody, V domains shown)
VH: QVQLVQSGGGLVQPGRSLRLSCAASGFTFDDYAMHWVRQAPGKGLEWVSGISWNSGSIGYADSVKGRFTISRDNAKNSLYLQMNSLRAEDTALYYCAKGLNSSGWYVYFDYWGQGTLVTVSS
VL: EIVLTQSPGTLSLSPGERATLSCRASQTVARNYLAWYQQKPGQAPRLLMYDPSSRPAGIPDRFSGSGSGTDFTLTISRLEPEDSAVYFCQQYGSPPLTFGGGTKIEIKR
Work on B1 yielded a Kd [1] of 157 nM and a Kd [2] of 10.5 nM.
